Experiment [1] has as its target T1, BCL-xL/Bak-peptide complex: biotinylated BCL-xL (residues 2-215) in the presence of 5 µM Bak peptide (human, UniProt Q07817 2-215, biotin on the N-terminal AviTag).
T1 construct: Bak peptide bought from Anaspec (AS-61616); not shown: N-terminal tags (pMCSG7 vector tag used for Ni-NTA, AviTag, TEV cut site)
Put plainly: biolayer interferometry, immobilized BCL-xL, 100 nM Fab with 5 µM Bak peptide. In general terms: Biolayer interferometry detects binding as a change in optical thickness at a sensor tip.

Experiment [2] concerns the target biotinylated C-terminally truncated BCL-xL (residues 2-215), no ligand (DMSO vehicle) (human) (UniProt Q07817). In words: BLI (Octet), biotinylated BCL-xL on streptavidin sensor, Fab as analyte, no ABT-737.
Experiment [3] has as its target T2, BCL-xL/ABT-737 complex: biotinylated BCL-xL (residues 2-215) in the presence of 1 µM ABT-737 (human, UniProt Q07817 2-215, biotin on the N-terminal AviTag; small molecule ABT-737 bound non-covalently).
T2 construct: Same protein as m1; not shown: N-terminal tags (pMCSG7 vector tag used for Ni-NTA, AviTag, TEV cut site)
In words: ELISA, biotinylated BCL-xL captured on NeutrAvidin, Fab titrated with 1 µM ABT-737, anti-Fab-HRP detection. (In general: ELISA stands for enzyme-linked immunosorbent assay.)

The target in experiment [4] is T2, BCL-xL/ABT-737 complex: biotinylated …. In words: ELISA, biotinylated BCL-xL captured on NeutrAvidin, Fab titrated with 1 µM ABT-737, anti-Fab-HRP detection [continued].
Experiment [5] addresses T3, biotinylated C-terminally truncated BCL-xL (residues 2-215), no ligand (DMSO vehicle) (human, UniProt Q07817 2-215, biotin on the N-terminal AviTag).
T3 construct: also called apo BCL-xL; not shown: N-terminal tags (pMCSG7 vector tag used for Ni-NTA, AviTag, TEV cut site)
Put plainly: ELISA, biotinylated BCL-xL captured on NeutrAvidin, Fab titrated with 0.05% DMSO (no ABT-737), anti-Fab-HRP detection [continued].

This note sets out measurements from patent US20200255519A1 (University of California, published 2020).

A value given as a limit tells only on which side of the number the result lay.

T3 sequence (Q07817 2-215): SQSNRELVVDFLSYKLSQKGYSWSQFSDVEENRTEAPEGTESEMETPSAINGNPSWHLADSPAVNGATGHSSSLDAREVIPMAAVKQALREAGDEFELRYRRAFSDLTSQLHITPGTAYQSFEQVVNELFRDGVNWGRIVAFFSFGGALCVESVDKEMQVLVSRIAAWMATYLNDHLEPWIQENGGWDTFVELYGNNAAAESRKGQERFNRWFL
T2 sequence (Q07817 2-215, one chain of several): as the sequence (Q07817 2-215) above
T1 sequence (Q07817 2-215, one chain of several): as the sequence (Q07817 2-215) above
Chain of biotinylated C-terminally truncated BCL-xL (residues 2-215), no ligand (DMSO vehicle) (human) (Q07817 2-215): as above

B1: Fab AZ1 (Fab)
heavy: EISEVQLVESGGGLVQPGGSLRLSCAASGFNLSYSSMHWVRQAPGKGLEWVASISPYSSYTSYADSVKGRFTISADTSKNTAYLQMNSLRAEDTAVYYCARGWVGMDYWGQGTLVTVSSASTKGPSVFPLAPSSKSTSGGTAALGCLVKDYFPEPVTVSWNSGALTSGVHTFPAVLQSSGLYSLSSVVTVPSSSLGTQTYICNVNHKPSNTKVDKKVEPKSCDKTHTGGSHHHHHH
light: SDIQMTQSPSSLSASVGDRVTITCRASQSVSSAVAWYQQKPGKAPKLLIYSASSLYSGVPSRFSGSRSGTDFTLTISSLQPEDFATYYCQQYYWGFPSLFTFGQGTKVEIKRTVAAPSVFIFPPSDSQLKSGTASVVCLLNNFYPREAKVQWKVDNALQSGNSQESVTEQDSKDSTYSLSSTLTLSKADYEKHKVYACEVTHQGLSSPVTKSFNRGECGGSDYKDDDDK
notes: Purified Fab from E. coli; The scaffold tags are kept
The Kd is the constant that tells how readily two partners part at equilibrium. Low readings indicate a tighter complex, high ones a looser complex. Consider B1, for which the binding result in experiment [1] is “no binding (tested: 100 nM)”. Also, the Kd in experiment [2] is above 5000 nM.

B2: Fab AZ2 (Fab)
heavy: EISEVQLVESGGGLVQPGGSLRLSCAASGFNIYSYYMHWVRQAPGKGLEWVAYISPYYSYTSYADSVKGRFTISADTSKNTAYLQMNSLRAEDTAVYYCARGYPWYGMDYWGQGTLVTVSSASTKGPSVFPLAPSSKSTSGGTAALGCLVKDYFPEPVTVSWNSGALTSGVHTFPAVLQSSGLYSLSSVVTVPSSSLGTQTYICNVNHKPSNTKVDKKVEPKSCDKTHTGGSHHHHHH
light: SDIQMTQSPSSLSASVGDRVTITCRASQSVSSAVAWYQQKPGKAPKLLIYSASSLYSGVPSRFSGSRSGTDFTLTISSLQPEDFATYYCQQVSWAYPYLITFGQGTKVEIKRTVAAPSVFIFPPSDSQLKSGTASVVCLLNNFYPREAKVQWKVDNALQSGNSQESVTEQDSKDSTYSLSSTLTLSKADYEKHKVYACEVTHQGLSSPVTKSFNRGECGGSDYKDDDDK
notes: Purified Fab; graft limits inferred
What is called EC50 (read off the curve) is the concentration that produces a half-maximal response. Consider B2, for which, in experiment [1], the binding result was “no binding (tested: 100 nM)”. This molecule also returned a Kd in experiment [2] above 5000 nM. For the same molecule, the “EC50 (read off the curve)” value in experiment [3] was around 2 nM.

B3: Fab AZ5 (Fab)
heavy: EISEVQLVESGGGLVQPGGSLRLSCAASGFNLYYYYIHWVRQAPGKGLEWVASIYPSYGSTYYADSVKGRFTISADTSKNTAYLQMNSLRAEDTAVYYCARASVWFGWYVPSAMDYWGQGTLVTVSSASTKGPSVFPLAPSSKSTSGGTAALGCLVKDYFPEPVTVSWNSGALTSGVHTFPAVLQSSGLYSLSSVVTVPSSSLGTQTYICNVNHKPSNTKVDKKVEPKSCDKTHTGGSHHHHHH
light: SDIQMTQSPSSLSASVGDRVTITCRASQSVSSAVAWYQQKPGKAPKLLIYSASSLYSGVPSRFSGSRSGTDFTLTISSLQPEDFATYYCQQWPGWYPITFGQGTKVEIKRTVAAPSVFIFPPSDSQLKSGTASVVCLLNNFYPREAKVQWKVDNALQSGNSQESVTEQDSKDSTYSLSSTLTLSKADYEKHKVYACEVTHQGLSSPVTKSFNRGECGGSDYKDDDDK
notes: as for B2
B3: the binding result in experiment [4] and in experiment [5] was “binds” in each case.

B4: Fab AZ3 (Fab)
heavy: EISEVQLVESGGGLVQPGGSLRLSCAASGFNIYYSYMHWVRQAPGKGLEWVASISPYSSYTSYADSVKGRFTISADTSKNTAYLQMNSLRAEDTAVYYCARYGYSYYYYGALDYWGQGTLVTVSSASTKGPSVFPLAPSSKSTSGGTAALGCLVKDYFPEPVTVSWNSGALTSGVHTFPAVLQSSGLYSLSSVVTVPSSSLGTQTYICNVNHKPSNTKVDKKVEPKSCDKTHTGGSHHHHHH
light: SDIQMTQSPSSLSASVGDRVTITCRASQSVSSAVAWYQQKPGKAPKLLIYSASSLYSGVPSRFSGSRSGTDFTLTISSLQPEDFATYYCQQGWSGPWLITFGQGTKVEIKRTVAAPSVFIFPPSDSQLKSGTASVVCLLNNFYPREAKVQWKVDNALQSGNSQESVTEQDSKDSTYSLSSTLTLSKADYEKHKVYACEVTHQGLSSPVTKSFNRGECGGSDYKDDDDK
notes: as for B2
For B4, the binding result in experiment [1] is recorded as “no binding (tested: 100 nM)”. This molecule also showed a Kd in experiment [2] above 5000 nM. The “EC50 (read off the curve)” value in experiment [3] was around 7 nM.

B5: Fab AZ6 (Fab)
heavy: EISEVQLVESGGGLVQPGGSLRLSCAASGFNLSYSYIHWVRQAPGKGLEWVASIYSSSGSTYYADSVKGRFTISADTSKNTAYLQMNSLRAEDTAVYYCARGSHAHGWAWFWYGMDYWGQGTLVTVSSASTKGPSVFPLAPSSKSTSGGTAALGCLVKDYFPEPVTVSWNSGALTSGVHTFPAVLQSSGLYSLSSVVTVPSSSLGTQTYICNVNHKPSNTKVDKKVEPKSCDKTHTGGSHHHHHH
light: SDIQMTQSPSSLSASVGDRVTITCRASQSVSSAVAWYQQKPGKAPKLLIYSASSLYSGVPSRFSGSRSGTDFTLTISSLQPEDFATYYCQQSSYSLITFGQGTKVEIKRTVAAPSVFIFPPSDSQLKSGTASVVCLLNNFYPREAKVQWKVDNALQSGNSQESVTEQDSKDSTYSLSSTLTLSKADYEKHKVYACEVTHQGLSSPVTKSFNRGECGGSDYKDDDDK
notes: as for B2
Regarding B5, the binding result in experiment [4] and in experiment [5] was “binds” in each case.

B6: Fab AZ7 (Fab)
heavy: EISEVQLVESGGGLVQPGGSLRLSCAASGFNLSSYSMHWVRQAPGKGLEWVASIYSYYGSTSYADSVKGRFTISADTSKNTAYLQMNSLRAEDTAVYYCARYSPWVYYPYYGWYSGMDYWGQGTLVTVSSASTKGPSVFPLAPSSKSTSGGTAALGCLVKDYFPEPVTVSWNSGALTSGVHTFPAVLQSSGLYSLSSVVTVPSSSLGTQTYICNVNHKPSNTKVDKKVEPKSCDKTHTGGSHHHHHH
light: SDIQMTQSPSSLSASVGDRVTITCRASQSVSSAVAWYQQKPGKAPKLLIYSASSLYSGVPSRFSGSRSGTDFTLTISSLQPEDFATYYCQQSSYSLITFGQGTKVEIKRTVAAPSVFIFPPSDSQLKSGTASVVCLLNNFYPREAKVQWKVDNALQSGNSQESVTEQDSKDSTYSLSSTLTLSKADYEKHKVYACEVTHQGLSSPVTKSFNRGECGGSDYKDDDDK
notes: as for B2
In the case of B6, the binding result in experiment [4] and in experiment [5] was “binds” throughout.
